Laboratory results as given in article PMC9637154 (Communications Biology, 2022).
Values joined by “and” are separate entries in the source; they are usually repeats but may differ in a detail not shown here. Identical values can stand only once.

Key:
Experiment in all cases: BLI
Conditions in all cases: both partners purified
[1] = biological target: T1, CoV2 Parental S-RBD fused with human Fc (SARS-CoV-2, UniProt P0DTC2)
T1 construct: also called Parental RBD; RBD-Fc

[2] = biological target: T2, CoV2 Parental S-RBD fused with human Fc (SARS-CoV-2, UniProt P0DTC2)
T2 construct: also called Parental RBD; RBD-Fc (Parental)

[3] = biological target: T3, CoV2 Omicron S-RBD with human Fc (SARS-CoV-2, UniProt P0DTC2)
T3 construct: also called Omicron RBD; RBD-Fc (Omicron)

Row | Binder | Kd [1] [nM] | Kd [2] | Kd [3]
1 | shACE2 N90A/N322A double glycan deletant (domain or fragment, also called N90A/N322A double deletant) STIEEQAKTFLDKFNHEAEDLFYQSSLASWNYNTNITEENVQNMNNAGDKWSAFLKEQSTLAQMYPLQEIQALTVKLQLQALQQNGSSVLSEDKSKRLNTILNTMSTIYSTGKVCNPDNPQECLLLEPGLNEIMANSLDYNERLWAWESWRSEVGKQLRPLYEEYVVLKNEMARANHYEDYGDYWRGDYEVNGVDGYDYSRGQLIEDVEHTFEEIKPLYEHLHAYVRAKLMNAYPSYISPIGCLPAHLLGDMWGRFWTNLYSLTVPFGQKPNIDVTDAMVDQAWDAQRIFKEAEKFFVSVGLPAMTQGFWENSMLTDPGNVQKAVCHPTAWDLGKGDFRILMCTKVTMDDFLTAHHEMGHIQYDMAYAAQPFLLRNGANEGFHEAVGEIMSLSAATPKHLKSIGLLSPDFQEDNETEINFLLKQALTIVGTLPFTYMLEKWRWMVFKGEIPKDQWMKKWWEMKREIVGVVEPVPHDETYCDPASLFHVSNDYSFIRYYTRTLYQFQFQEALCQAAKHEGPLHKCDISNSTEAGQKLFNMLRLGKSEPWTLALENVVGAKNMNVRPLLNYFEPLFTWLKDQNKNSFVGWSTDWSPYADQSIK | 115 | – | –
2 | soluble hACE2 N53A/N90A/N322A (receptor, also called N53A/N90A/N322A triple deletant) STIEEQAKTFLDKFNHEAEDLFYQSSLASWNYNTAITEENVQNMNNAGDKWSAFLKEQSTLAQMYPLQEIQALTVKLQLQALQQNGSSVLSEDKSKRLNTILNTMSTIYSTGKVCNPDNPQECLLLEPGLNEIMANSLDYNERLWAWESWRSEVGKQLRPLYEEYVVLKNEMARANHYEDYGDYWRGDYEVNGVDGYDYSRGQLIEDVEHTFEEIKPLYEHLHAYVRAKLMNAYPSYISPIGCLPAHLLGDMWGRFWTNLYSLTVPFGQKPNIDVTDAMVDQAWDAQRIFKEAEKFFVSVGLPAMTQGFWENSMLTDPGNVQKAVCHPTAWDLGKGDFRILMCTKVTMDDFLTAHHEMGHIQYDMAYAAQPFLLRNGANEGFHEAVGEIMSLSAATPKHLKSIGLLSPDFQEDNETEINFLLKQALTIVGTLPFTYMLEKWRWMVFKGEIPKDQWMKKWWEMKREIVGVVEPVPHDETYCDPASLFHVSNDYSFIRYYTRTLYQFQFQEALCQAAKHEGPLHKCDISNSTEAGQKLFNMLRLGKSEPWTLALENVVGAKNMNVRPLLNYFEPLFTWLKDQNKNSFVGWSTDWSPYADQSIK | – | 262 nM and 246 nM | 67.1 nM and 75.5 nM and 71.3 nM
3 | soluble hACE2 N53S/N90S/N322S (receptor, also called triple glycan deletant) STIEEQAKTFLDKFNHEAEDLFYQSSLASWNYNTSITEENVQNMNNAGDKWSAFLKEQSTLAQMYPLQEIQSLTVKLQLQALQQNGSSVLSEDKSKRLNTILNTMSTIYSTGKVCNPDNPQECLLLEPGLNEIMANSLDYNERLWAWESWRSEVGKQLRPLYEEYVVLKNEMARANHYEDYGDYWRGDYEVNGVDGYDYSRGQLIEDVEHTFEEIKPLYEHLHAYVRAKLMNAYPSYISPIGCLPAHLLGDMWGRFWTNLYSLTVPFGQKPNIDVTDAMVDQAWDAQRIFKEAEKFFVSVGLPSMTQGFWENSMLTDPGNVQKAVCHPTAWDLGKGDFRILMCTKVTMDDFLTAHHEMGHIQYDMAYAAQPFLLRNGANEGFHEAVGEIMSLSAATPKHLKSIGLLSPDFQEDNETEINFLLKQALTIVGTLPFTYMLEKWRWMVFKGEIPKDQWMKKWWEMKREIVGVVEPVPHDETYCDPASLFHVSNDYSFIRYYTRTLYQFQFQEALCQAAKHEGPLHKCDISNSTEAGQKLFNMLRLGKSEPWTLALENVVGAKNMNVRPLLNYFEPLFTWLKDQNKNSFVGWSTDWSPYADQSIK | – | 178 nM and 219 nM and 198 nM | 64.7 nM and 72.7 nM and 68.7 nM
4 | soluble hACE2 N90S/N322S (receptor, also called double glycan deletant) STIEEQAKTFLDKFNHEAEDLFYQSSLASWNYNTNITEENVQNMNNAGDKWSAFLKEQSTLAQMYPLQEIQSLTVKLQLQALQQNGSSVLSEDKSKRLNTILNTMSTIYSTGKVCNPDNPQECLLLEPGLNEIMANSLDYNERLWAWESWRSEVGKQLRPLYEEYVVLKNEMARANHYEDYGDYWRGDYEVNGVDGYDYSRGQLIEDVEHTFEEIKPLYEHLHAYVRAKLMNAYPSYISPIGCLPAHLLGDMWGRFWTNLYSLTVPFGQKPNIDVTDAMVDQAWDAQRIFKEAEKFFVSVGLPSMTQGFWENSMLTDPGNVQKAVCHPTAWDLGKGDFRILMCTKVTMDDFLTAHHEMGHIQYDMAYAAQPFLLRNGANEGFHEAVGEIMSLSAATPKHLKSIGLLSPDFQEDNETEINFLLKQALTIVGTLPFTYMLEKWRWMVFKGEIPKDQWMKKWWEMKREIVGVVEPVPHDETYCDPASLFHVSNDYSFIRYYTRTLYQFQFQEALCQAAKHEGPLHKCDISNSTEAGQKLFNMLRLGKSEPWTLALENVVGAKNMNVRPLLNYFEPLFTWLKDQNKNSFVGWSTDWSPYADQSIK | – | 123 nM and 126 nM and 125 nM | 38.2 nM and 38.5 nM and 38.4 nM
5 | soluble hACE2 N53S/N322S (receptor, also called double glycan deletant) STIEEQAKTFLDKFNHEAEDLFYQSSLASWNYNTSITEENVQNMNNAGDKWSAFLKEQSTLAQMYPLQEIQNLTVKLQLQALQQNGSSVLSEDKSKRLNTILNTMSTIYSTGKVCNPDNPQECLLLEPGLNEIMANSLDYNERLWAWESWRSEVGKQLRPLYEEYVVLKNEMARANHYEDYGDYWRGDYEVNGVDGYDYSRGQLIEDVEHTFEEIKPLYEHLHAYVRAKLMNAYPSYISPIGCLPAHLLGDMWGRFWTNLYSLTVPFGQKPNIDVTDAMVDQAWDAQRIFKEAEKFFVSVGLPSMTQGFWENSMLTDPGNVQKAVCHPTAWDLGKGDFRILMCTKVTMDDFLTAHHEMGHIQYDMAYAAQPFLLRNGANEGFHEAVGEIMSLSAATPKHLKSIGLLSPDFQEDNETEINFLLKQALTIVGTLPFTYMLEKWRWMVFKGEIPKDQWMKKWWEMKREIVGVVEPVPHDETYCDPASLFHVSNDYSFIRYYTRTLYQFQFQEALCQAAKHEGPLHKCDISNSTEAGQKLFNMLRLGKSEPWTLALENVVGAKNMNVRPLLNYFEPLFTWLKDQNKNSFVGWSTDWSPYADQSIK | – | 438 nM and 457 nM and 448 nM | 163 nM and 162 nM (2×)
6 | soluble hACE2 N53S/N90S (receptor, also called double glycan deletant) STIEEQAKTFLDKFNHEAEDLFYQSSLASWNYNTSITEENVQNMNNAGDKWSAFLKEQSTLAQMYPLQEIQSLTVKLQLQALQQNGSSVLSEDKSKRLNTILNTMSTIYSTGKVCNPDNPQECLLLEPGLNEIMANSLDYNERLWAWESWRSEVGKQLRPLYEEYVVLKNEMARANHYEDYGDYWRGDYEVNGVDGYDYSRGQLIEDVEHTFEEIKPLYEHLHAYVRAKLMNAYPSYISPIGCLPAHLLGDMWGRFWTNLYSLTVPFGQKPNIDVTDAMVDQAWDAQRIFKEAEKFFVSVGLPNMTQGFWENSMLTDPGNVQKAVCHPTAWDLGKGDFRILMCTKVTMDDFLTAHHEMGHIQYDMAYAAQPFLLRNGANEGFHEAVGEIMSLSAATPKHLKSIGLLSPDFQEDNETEINFLLKQALTIVGTLPFTYMLEKWRWMVFKGEIPKDQWMKKWWEMKREIVGVVEPVPHDETYCDPASLFHVSNDYSFIRYYTRTLYQFQFQEALCQAAKHEGPLHKCDISNSTEAGQKLFNMLRLGKSEPWTLALENVVGAKNMNVRPLLNYFEPLFTWLKDQNKNSFVGWSTDWSPYADQSIK | – | 223 nM and 226 nM and 224 nM | 101 nM and 123 nM and 112 nM
7 | soluble hACE2 N53A/N90A (receptor, also called double glycan deletant) STIEEQAKTFLDKFNHEAEDLFYQSSLASWNYNTAITEENVQNMNNAGDKWSAFLKEQSTLAQMYPLQEIQALTVKLQLQALQQNGSSVLSEDKSKRLNTILNTMSTIYSTGKVCNPDNPQECLLLEPGLNEIMANSLDYNERLWAWESWRSEVGKQLRPLYEEYVVLKNEMARANHYEDYGDYWRGDYEVNGVDGYDYSRGQLIEDVEHTFEEIKPLYEHLHAYVRAKLMNAYPSYISPIGCLPAHLLGDMWGRFWTNLYSLTVPFGQKPNIDVTDAMVDQAWDAQRIFKEAEKFFVSVGLPNMTQGFWENSMLTDPGNVQKAVCHPTAWDLGKGDFRILMCTKVTMDDFLTAHHEMGHIQYDMAYAAQPFLLRNGANEGFHEAVGEIMSLSAATPKHLKSIGLLSPDFQEDNETEINFLLKQALTIVGTLPFTYMLEKWRWMVFKGEIPKDQWMKKWWEMKREIVGVVEPVPHDETYCDPASLFHVSNDYSFIRYYTRTLYQFQFQEALCQAAKHEGPLHKCDISNSTEAGQKLFNMLRLGKSEPWTLALENVVGAKNMNVRPLLNYFEPLFTWLKDQNKNSFVGWSTDWSPYADQSIK | – | 220 nM and 246 nM and 233 nM | 83.2 nM and 116 nM and 99.5 nM
8 | soluble hACE2 N53A/N322A (receptor, also called double glycan deletant) STIEEQAKTFLDKFNHEAEDLFYQSSLASWNYNTAITEENVQNMNNAGDKWSAFLKEQSTLAQMYPLQEIQNLTVKLQLQALQQNGSSVLSEDKSKRLNTILNTMSTIYSTGKVCNPDNPQECLLLEPGLNEIMANSLDYNERLWAWESWRSEVGKQLRPLYEEYVVLKNEMARANHYEDYGDYWRGDYEVNGVDGYDYSRGQLIEDVEHTFEEIKPLYEHLHAYVRAKLMNAYPSYISPIGCLPAHLLGDMWGRFWTNLYSLTVPFGQKPNIDVTDAMVDQAWDAQRIFKEAEKFFVSVGLPAMTQGFWENSMLTDPGNVQKAVCHPTAWDLGKGDFRILMCTKVTMDDFLTAHHEMGHIQYDMAYAAQPFLLRNGANEGFHEAVGEIMSLSAATPKHLKSIGLLSPDFQEDNETEINFLLKQALTIVGTLPFTYMLEKWRWMVFKGEIPKDQWMKKWWEMKREIVGVVEPVPHDETYCDPASLFHVSNDYSFIRYYTRTLYQFQFQEALCQAAKHEGPLHKCDISNSTEAGQKLFNMLRLGKSEPWTLALENVVGAKNMNVRPLLNYFEPLFTWLKDQNKNSFVGWSTDWSPYADQSIK | – | 411 nM and 395 nM and 403 nM | 164 nM and 139 nM and 151 nM
9 | soluble hACE2 N90A/N322A (receptor, also called N90A/N322A double deletant) STIEEQAKTFLDKFNHEAEDLFYQSSLASWNYNTNITEENVQNMNNAGDKWSAFLKEQSTLAQMYPLQEIQALTVKLQLQALQQNGSSVLSEDKSKRLNTILNTMSTIYSTGKVCNPDNPQECLLLEPGLNEIMANSLDYNERLWAWESWRSEVGKQLRPLYEEYVVLKNEMARANHYEDYGDYWRGDYEVNGVDGYDYSRGQLIEDVEHTFEEIKPLYEHLHAYVRAKLMNAYPSYISPIGCLPAHLLGDMWGRFWTNLYSLTVPFGQKPNIDVTDAMVDQAWDAQRIFKEAEKFFVSVGLPAMTQGFWENSMLTDPGNVQKAVCHPTAWDLGKGDFRILMCTKVTMDDFLTAHHEMGHIQYDMAYAAQPFLLRNGANEGFHEAVGEIMSLSAATPKHLKSIGLLSPDFQEDNETEINFLLKQALTIVGTLPFTYMLEKWRWMVFKGEIPKDQWMKKWWEMKREIVGVVEPVPHDETYCDPASLFHVSNDYSFIRYYTRTLYQFQFQEALCQAAKHEGPLHKCDISNSTEAGQKLFNMLRLGKSEPWTLALENVVGAKNMNVRPLLNYFEPLFTWLKDQNKNSFVGWSTDWSPYADQSIK | – | 127 nM and 103 nM | 36.5 nM and 36 nM and 36.3 nM
